{"source": "paper PMC4737190", "origin": "cited, not measured here", "biological_target": "linear (Met1-linked) di-ubiquitin (Homo sapiens) (UniProt P0CG47)", "note": "“And” between values parts separate entries of the source, which are not always exact repeats. Equal entries are not always repeated."}
{"substance": "NEMO UBAN (from UniProt Q9Y6K9)", "values": [{"measurement": "Kd", "result": "1600 nM and 3700 nM"}]}
